Results: paper PMC3575409, “Identification of a Novel Protein-Protein Interaction Motif Mediating Interaction of GPCR-Associated Sorting Proteins with G Protein-Coupled Receptors” (PLoS ONE, 2013)

Columns and labels:
[1] = target: full-length ADRB2 (β2 adrenergic receptor); assay: SPR saturation binding, ADRB2; design: species or system human
Experimental: The human ADRB2 and CNR2 receptors were produced using the P. pastoris expression system as previously described, [16]. After methanol-induced receptor expression, cells were washed with PBS pH 7.0 and resuspended in ice-cold buffer A (50 mM Tris-HCl pH 7.4, 500 mM NaCl, 10% glycerol, 5 mM EDTA, 1 mM PMSF, 2 mM DDT). Cells were then lysed with two cycles of 20 s shaking and 20 s cooling on ice using 0.5 mm glass beads in a FastPrep 24 device. Unbroken cells and cell debris were removed by centrifugation (3000 g, 5 min, 4°C) and the membrane fraction from the supernatant was pelleted by ultracentrifugation (100,000 g, 45 min, 4°C). […] Finally membranes were resuspended in buffer B and quantified with the bicinchoninic acid (BCA) method (Pierce).
Approximately 150 mg membrane proteins were extracted by 5 min incubation at room temperature in buffer C (50 mM Tris-HCl pH 7.4, 500 mM NaCl, 10% glycerol, 1 mM PMSF, 2 mM DTT, 50 mM imidazole, 1% (w/v) DDM, 0.1% (w/v) CHS). […] Imidazole was removed from the eluted fraction using a HiTrap 5 ml desalting column (GE Healthcare), purified proteins were quantified using the BCA assay (Pierce) and receptor integrity was analyzed by SDS-PAGE. […]

[2] = system: MyrPalm-mYFP in HEK293 cells; assay: Co-immunoprecipitation, MyrPalm-mYFP (negative control); format: cell-based; conditions: 48 h expression, anti-GFP immunoprecipitation
Experimental: HEK293 cells stably expressing N-terminal GFP-tagged ADRB1, ADRB2, CALCR and M1 or MyrPalm-mYFP were transfected with pcDNA3.1 containing the sequence for a central domain of GASP-1 (AA 380 to 1073) using JetPEI reagent (polyplus transfection) according to the instructions from the manufacturer. After 48 h of expression, cells were washed twice with PBS and lysed in a buffer containing 10 mM Tris-HCl, pH 7.4, 150 mM NaCl, 25 mM KCl, 0.3% Triton X-100 and cOmplete protease inhibitors (Roche) for 1 h at 4°C under agitation. 500 µg of cleared lysates were incubated with 1 µg of a mouse monoclonal anti-GFP antibody (Invitrogen) overnight at 4°C, followed by an incubation with 40 µl of protein A-Sepharose beads for an additional 2 h at 4°C. Beads were then washed five times in lysis buffer and precipitates were resolved on an 8% gel by SDS–PAGE and electrotransferred to immobilon-P membranes (Millipore) in 50 mM Tris-boric acid for 1 h at 300 mA. Membranes were blocked with 5% non-fat powder milk in TBS-Tween (50 mM Tris-HCl pH 8, 150 mM NaCl, 0.4% Tween-20) for 1 h at room temperature. […] For immunodetection of GASP or GFP-tagged receptors directly from cell lysates, 10 µg of proteins were loaded on SDS gels and analyzed following the procedure described above. Finally, membranes were washed in TBS-Tween and detected by chemiluminescence (ECL prime, GE Healthcare). […]

B1: central domain of GASP-1: central portion of GASP-1 (AA 380 to 1073) that contains 19 GASP motif (protein)
chain: MTKEEAKTKARARAKQEARSEEEALIGTWFWATDESSMADEASIESSLQVEDESIIGSWFWTEEEASMGTGASSKSRPRTDGERIGDSLFGAREKTSMKTGAEATSESILAADDEQVIIGSWFWAGEEVNQEAEEETIFGSWFWVIDAASVESGVGVSCESRTRSEEEEVIGPWFWSGEQVDIEAGIGEEARPGAEEETIFGSWFWAENQTYMDCRAETSCDTMQGAEEEEPIIGSWFWTRVEACVEGDVNSKSSLEDKEEAMIPCFGAKEEVSMKHGTGVRCRFMAGAEETNNKSCFWAEKEPCMYPAGGGSWKSRPEEEEDIVNSWFWSRKYTKPEAIIGSWLWATEESNIDGTGEKAKLLTEEETIINSWFWKEDEAISEATDREESRPEAEEGDIIGSWFWAGEEDRLEPAAETREEDRLAAEKEGIVGSWFGAREETIRREAGSCSKSSPKAEEEEVIIGSWFWEEEASPEAVAGVGFESKPGTEEEEITVGSWFWPEEEASIQAGSQAVEEMESETEEETIFGSWFWDGKEVSEEAGPCCVSKPEDDEEMIVESWFWSRDKAIKETGTVATCESKPENEEGAIVGSWFEAEDEVDNRTDNGSNCGSRTLADEDEAIVGSWFWAGDEAHFESNPSPVFRAICRSTCSVEQEPDPSRRPQSWEEVTVQFKPGPWGRVGFPSISPFRFPKE
modifications: left off: GST, N-terminal, kept
notes: central portion of GASP-1 (AA 380 to 1073) that contains 19 GASP motif
- kinetics of the interaction [1]: very stable and had a slow association rate
- co-immunoprecipitation with MyrPalm-mYFP [2]: no co-immunoprecipation was observed
